Laboratory results as given in article PMC7290940.

Tests used:
Assay in all cases: SEC; single purified protein on Superdex 200 10/300 GL, apparent mass against protein standards
[1] = molecular target: untagged gp44 of bacteriophage 80α (Staphylococcus aureus bacteriophage 80α)
[2] = molecular target: untagged CI immunity repressor of bacteriophage 80α (Staphylococcus aureus bacteriophage 80α)
[3] = molecular target: full-length gp44 with C-terminal His6 tag (gp44–His), bacteriophage 80α (Staphylococcus aureus bacteriophage 80α)
[4] = molecular target: gp44-NTD-His (gp44 residues 1–271) (Staphylococcus aureus bacteriophage 80α)

Substance: untagged gp44 of bacteriophage 80α (natural protein)
- stoichiometry N [1]: 2

Substance: untagged CI immunity repressor of bacteriophage 80α (natural protein)
- stoichiometry N [2]: 2

Substance: full-length gp44 with C-terminal His6 tag (gp44–His), bacteriophage 80α (natural protein)
- stoichiometry N [3]: 2

Substance: gp44-NTD-His (gp44 residues 1–271) (domain or fragment)
- stoichiometry N [4]: 2
